Results reported in the RNAGym collection of RNA variant scans (doi:10.7554/elife.80360).

B1: Hammerhead Ribozyme (parent)
chain: ACCGGAUGUGCUUUCCGGUCUGAUGAGUCCGUGAGGACGAAACAG

Variants of: B1
Experiment: self-cleavage, relative activity (ratio to wild type); higher = more cleavage; co-transcriptional

Which self-cleavage does the source give for ACCGGAUGUUCUUUCCGGUCUGAUAAGUCCGUGAGGACGAAACAG [G10U G25A] here?
The self-cleavage was 0.313.

For ACCGGAUGUUCUUUCCGGUCUGAUCAGUCCGUGAGGACGAAACAG [G10U G25C], which self-cleavage is on record?
Its self-cleavage is 0.375.

For ACCGGAUGUUCUUUCCGGUCUGAUUAGUCCGUGAGGACGAAACAG [G10U G25U], which self-cleavage is on record?
The self-cleavage was 0.314.

With ACCGGAUGUGAUUUCCGGUCUGUUGAGUCCGUGAGGACGAAACAG [C11A A23U] as the variant, how does the self-cleavage read?
The self-cleavage was 0.401.

For ACCGGAUGUGAUUUCCGGUCUGCUGAGUCCGUGAGGACGAAACAG [C11A A23C], which self-cleavage is on record?
Its self-cleavage is 0.491.

With ACCGGAUGUGAUUUCCGGUCUGGUGAGUCCGUGAGGACGAAACAG [C11A A23G] as the variant, how does the self-cleavage read?
The self-cleavage was 0.371.

For ACCGGAUGUGAUUUCCGGUCUGAUGAGUCCGUGCGGACGAAACAG [C11A A34C], which self-cleavage is on record?
Its self-cleavage is 0.731.

Which self-cleavage does the source give for ACCGGAUGUGAUUUCCGGUCUGAUGAGUCCGUGUGGACGAAACAG [C11A A34U] here?
Its self-cleavage is 0.771.

Which self-cleavage does the source give for ACCGGAUGUGAUUUCCGGUCUGAUGAGUCCGUGGGGACGAAACAG [C11A A34G] here?
Its self-cleavage is 0.996.

Which self-cleavage does the source give for ACCGGAUGUUCGUUCCGGUCUGAUGAGUCCGUGAGGACGAAACAG [G10U U12G] here?
Its self-cleavage is 0.773.

With ACCGGAUGUUCCUUCCGGUCUGAUGAGUCCGUGAGGACGAAACAG [G10U U12C] as the variant, how does the self-cleavage read?
Its self-cleavage is 0.689.

For ACCGGAUGUUCAUUCCGGUCUGAUGAGUCCGUGAGGACGAAACAG [G10U U12A], which self-cleavage is on record?
Its self-cleavage is 0.87.

For ACCGGAUGUUCUUUCCGGUCUGAUGAGUCCGUGAGGACGAACCAG [G10U A42C], which self-cleavage is on record?
The self-cleavage was 0.45.

With ACCGGAUGUUCUUUCCGGUCUGAUGAGUCCGUGAGGACGAAUCAG [G10U A42U] as the variant, how does the self-cleavage read?
The self-cleavage was 0.304.

With ACCGGAUGUUCUUUCCGGUCUGAUGAGUCCGUGAGGACGAAGCAG [G10U A42G] as the variant, how does the self-cleavage read?
The self-cleavage was 0.344.

For ACCGGAUGUUCUUUCCGGUAUGAUGAGUCCGUGAGGACGAAACAG [G10U C20A], which self-cleavage is on record?
The self-cleavage was 0.42.

Which self-cleavage does the source give for ACCGGAUGUUCUUUCCGGUUUGAUGAGUCCGUGAGGACGAAACAG [G10U C20U] here?
The self-cleavage was 0.579.

For ACCGGAUGUUCUUUCCGGUGUGAUGAGUCCGUGAGGACGAAACAG [G10U C20G], which self-cleavage is on record?
The self-cleavage was 0.343.

For ACCGGAUGUUCUUUCCGGUCUGAUGAAUCCGUGAGGACGAAACAG [G10U G27A], which self-cleavage is on record?
Its self-cleavage is 0.825.

For ACCGGAUGUUCUUUCCGGUCUGAUGAUUCCGUGAGGACGAAACAG [G10U G27U], which self-cleavage is on record?
Its self-cleavage is 0.507.

For ACCGGAUGUUCUUUCCGGUCUGAUGACUCCGUGAGGACGAAACAG [G10U G27C], which self-cleavage is on record?
The self-cleavage was 0.861.

Which self-cleavage does the source give for ACCGGAUGUUCUUUCCGGUCUGAUGAGUCCGUGAGGACGAAAUAG [G10U C43U] here?
Its self-cleavage is 0.537.

With ACCGGAUGUUCUUUCCGGUCUGAUGAGUCCGUGAGGACGAAAAAG [G10U C43A] as the variant, how does the self-cleavage read?
Its self-cleavage is 0.354.

With ACCGGAUGUUCUUUCCGGUCUGAUGAGUCCGUGAGGACGAAAGAG [G10U C43G] as the variant, how does the self-cleavage read?
The self-cleavage was 0.405.

Which self-cleavage does the source give for ACCGGAUGUUCUUUCCGGUCCGAUGAGUCCGUGAGGACGAAACAG [G10U U21C] here?
Its self-cleavage is 0.896.

For ACCGGAUGUUCUUUCCGGUCGGAUGAGUCCGUGAGGACGAAACAG [G10U U21G], which self-cleavage is on record?
Its self-cleavage is 0.578.

With ACCGGAUGUUCUUUCCGGUCAGAUGAGUCCGUGAGGACGAAACAG [G10U U21A] as the variant, how does the self-cleavage read?
The self-cleavage was 0.605.

With ACCGGAUGUUCUUUCCGGUCUGAUGAGUCCGUGUGGACGAAACAG [G10U A34U] as the variant, how does the self-cleavage read?
Its self-cleavage is 0.864.

Which self-cleavage does the source give for ACCGGAUGUUCUUUCCGGUCUGAUGAGUCCGUGGGGACGAAACAG [G10U A34G] here?
Its self-cleavage is 0.942.

For ACCGGAUGUUCUUUCCGGUCUGAUGAGCCCGUGAGGACGAAACAG [G10U U28C], which self-cleavage is on record?
Its self-cleavage is 1.18.

With ACCGGAUGUUCUUUCCGGUCUGAUGAGACCGUGAGGACGAAACAG [G10U U28A] as the variant, how does the self-cleavage read?
Its self-cleavage is 0.771.

For ACCGGAUGUUCUUUCCGGUCUGAUGAGGCCGUGAGGACGAAACAG [G10U U28G], which self-cleavage is on record?
The self-cleavage was 0.664.

Which self-cleavage does the source give for ACCGGAUGUUCUUUCCGGUCUGAUGAGUCCGUGACGACGAAACAG [G10U G35C] here?
The self-cleavage was 0.685.

With ACCGGAUGUUCUUUCCGGUCUGAUGAGUCCGUGAUGACGAAACAG [G10U G35U] as the variant, how does the self-cleavage read?
The self-cleavage was 0.844.

For ACCGGAUGUUCUUUCCGGUCUGAUGAGUCCGUGAAGACGAAACAG [G10U G35A], which self-cleavage is on record?
Its self-cleavage is 0.838.

With ACCGGAUGUUCUUUCCGUUCUGAUGAGUCCGUGAGGACGAAACAG [G10U G18U] as the variant, how does the self-cleavage read?
Its self-cleavage is 0.877.

For ACCGGAUGUUCUUUCCGCUCUGAUGAGUCCGUGAGGACGAAACAG [G10U G18C], which self-cleavage is on record?
The self-cleavage was 0.682.

With ACCGGAUGUUCUUUCCGAUCUGAUGAGUCCGUGAGGACGAAACAG [G10U G18A] as the variant, how does the self-cleavage read?
Its self-cleavage is 0.836.

For ACCGGAUGUUCUUUCCAGUCUGAUGAGUCCGUGAGGACGAAACAG [G10U G17A], which self-cleavage is on record?
The self-cleavage was 0.957.

With ACCGGAUGUUCUUUCCUGUCUGAUGAGUCCGUGAGGACGAAACAG [G10U G17U] as the variant, how does the self-cleavage read?
Its self-cleavage is 0.848.

For ACCGGAUGUUCUUUCCCGUCUGAUGAGUCCGUGAGGACGAAACAG [G10U G17C], which self-cleavage is on record?
The self-cleavage was 0.649.

Which self-cleavage does the source give for ACCGGAUGUUCUUUCCGGUCUGAUGAGUCCGUGAGGACCAAACAG [G10U G39C] here?
Its self-cleavage is 0.379.

Which self-cleavage does the source give for ACCGGAUGUUCUUUCCGGUCUGAUGAGUCCGUGAGGACUAAACAG [G10U G39U] here?
Its self-cleavage is 0.313.

For ACCGGAUGUUCUUUCCGGUCUGAUGAGUCCGUGAGGACAAAACAG [G10U G39A], which self-cleavage is on record?
Its self-cleavage is 0.405.

With ACCGGAUGUUCUUUCCGGUCUGAUGAGUCCCUGAGGACGAAACAG [G10U G31C] as the variant, how does the self-cleavage read?
The self-cleavage was 0.998.

For ACCGGAUGUUCUUUCCGGUCUGAUGAGUCCUUGAGGACGAAACAG [G10U G31U], which self-cleavage is on record?
The self-cleavage was 0.736.

For ACCGGAUGUUCUUUCCGGUCUGAUGAGUCCAUGAGGACGAAACAG [G10U G31A], which self-cleavage is on record?
The self-cleavage was 0.989.

For ACCGGAUGUUGUUUCCGGUCUGAUGAGUCCGUGAGGACGAAACAG [G10U C11G], which self-cleavage is on record?
Its self-cleavage is 1.2.

For ACCGGAUGUUAUUUCCGGUCUGAUGAGUCCGUGAGGACGAAACAG [G10U C11A], which self-cleavage is on record?
Its self-cleavage is 1.25.

For ACCGGAUGUUUUUUCCGGUCUGAUGAGUCCGUGAGGACGAAACAG [G10U C11U], which self-cleavage is on record?
The self-cleavage was 1.14.

For ACCGGAUGUUCUUUCCGGUCUGAUGAGUCCGUGAGGACGAAACUG [G10U A44U], which self-cleavage is on record?
Its self-cleavage is 0.686.

Which self-cleavage does the source give for ACCGGAUGUUCUUUCCGGUCUGAUGAGUCCGUGAGGACGAAACCG [G10U A44C] here?
The self-cleavage was 0.534.

For ACCGGAUGUUCUUUCCGGUCUGAUGAGUCCGUGAGGACGAAACGG [G10U A44G], which self-cleavage is on record?
Its self-cleavage is 1.57.

For ACCGGAUGUUCUUUACGGUCUGAUGAGUCCGUGAGGACGAAACAG [G10U C15A], which self-cleavage is on record?
The self-cleavage was 0.817.

For ACCGGAUGUUCUUUUCGGUCUGAUGAGUCCGUGAGGACGAAACAG [G10U C15U], which self-cleavage is on record?
Its self-cleavage is 1.07.

With ACCGGAUGUUCUUUGCGGUCUGAUGAGUCCGUGAGGACGAAACAG [G10U C15G] as the variant, how does the self-cleavage read?
Its self-cleavage is 0.826.

Which self-cleavage does the source give for ACCGGAUGUUCUUUCCGGUCUGAUGAGUCCGUGAGUACGAAACAG [G10U G36U] here?
The self-cleavage was 0.587.
